Experimental data taken from patent publication US11584938B2, “Plant EPSPS mutant containing L195P and S247G mutations and encoding gene and use thereof” (GEVOTO LLC, priority 2017, dated 2023).
Where a chain is given by its changes, count along the chain named.

B1: T2: wheat EPSPS mutant, SEQ ID NO: 18, merely containing the mutation P118(101)S; control (protein)
chain: MATSVAAPAAPAGAEEVVLQPIREISGAVQLPGSKSLSNRILLLSALSEGTTVVDNLLNSEDVHYMLEALEALGLSVEADKVAKRAVVVGCGGRFPVEKDAKEEVKLFLGNAGTAMRSLTAAVVAAGGNATYVLDGVPRMRERPIGDLVVGLQQLGADVDCFLGTNCPPVRINGKGGLPGGKVKLSGSISSQYLSSLLMAAPLALEDVEIEIIDKLISVPYVEMTLKLMEHFGVTAEHSDSWDRFYIKGGQKYKSPGNAYVEGDASSASYFLAGAAITGGTVTVEGCGTTSLQGDVKFAEVLEMMGAKVTWTDTSVTVTGPPRQPFGRKHLKAVDVNMNKMPDVAMTLAVVALFADGPTAIRDVASWRVKETERMVAIRTELTKLGATVEEGPDYCIITPPEKLNITAIDTYDDHRMAMAFSLAACAEVPVTIRDPGCTRKTFPNYFDVLSTFVKN
B2: T4: wheat EPSPS mutant, SEQ ID NO: 22, mutation L216(195)P (protein)
chain: B1 chain with S118P, L216P
B3: T3: wheat EPSPS mutant, SEQ ID NO: 20, mutations S269(247)G and P118(101)S (protein)
chain: B1 chain with S269G

Tested on: transgenic rice plants
Assay: glyphosate resistance of the EPSPS mutant in transgenic rice plants sprayed with Roundup 41% ammonium glyphosate
Type: in vivo, rice (Nipponbare)
Outline: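 EPSPS mutant genes were cloned into pGVP1 and introduced into Nipponbare rice embryo-derived calluses via Agrobacterium EHA105 (OD 0.2, 10 min infection, 2–3 days co-culture at 25 °C in the dark). Calluses went through recovery, two 14-day screening rounds at 30 °C, two differentiation rounds and rooting to regenerate transgenic plants.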

[1] = 1× dosage 1060 g/hectare glyphosate sprayed, recorded on 10th day
[2] = 2× dosage 2120 g/hectare sprayed to plants surviving 1×, recorded 10 days later
[3] = 5× dosage 5300 g/hectare sprayed to plants surviving 2×, recorded 10 days later
[4] = 20× dosage 21200 g/hectare sprayed to plants surviving 5×, recorded 10 days later

| Molecule | %++&+++ (percentage of plant having medium and high glyphosate resistance to the total number of plants observed) [1] [%] | number of plants denoted by + (low glyphosate resistance) [1] | number of plants denoted by ++ (medium glyphosate resistance) [1] | number of plants denoted by +++ (high glyphosate resistance) [1] | number of plants denoted by − (no glyphosate resistance) [1] | glyphosate resistance / survival of the rice transformed by the EPSPS, in words (1× glyphosate dosage) | %++&+++ (percentage of plant having medium and high glyphosate resistance to the total number of plants observed) [2] [%] | number of plants denoted by + (low glyphosate resistance) [2] | number of plants denoted by ++ (medium glyphosate resistance) [2] | number of plants denoted by +++ (high glyphosate resistance) [2] | number of plants denoted by − (no glyphosate resistance) [2] | &++&+++ (percentage of plant having medium and high glyphosate resistance to the total number of plants observed) [3] [%] | number of plants denoted by + (low glyphosate resistance) [3] | number of plants denoted by ++ (medium glyphosate resistance) [3] | number of plants denoted by +++ (high glyphosate resistance) [3] | number of plants denoted by − (no glyphosate resistance) [3] | &++&+++ (percentage of plant having medium and high glyphosate resistance to the total number of plants observed) [4] [%] | number of plants denoted by + (low glyphosate resistance) [4] | number of plants denoted by ++ (medium glyphosate resistance) [4] | number of plants denoted by +++ (high glyphosate resistance) [4] | other results |
| --- | --- | --- | --- | --- | --- | --- | --- | --- | --- | --- | --- | --- | --- | --- | --- | --- | --- | --- | --- | --- | --- |
| B1 | 52.8 | 13 | 15 | 13 | 12 | had relatively high resistance to glyphosate | 7.5 | 26 | 3 | 1 | 23 | 0.0 | 21 | 0 | 0 | 32 | 0.0 | 11 | 0 | 0 | glyphosate resistance / survival of the rice transformed by the EPSPS, in words (5× glyphosate dosage): none of the rice seedlings containing the wheat EPSPS mutant T2 achieved the level of medium glyphosate resistance; number of plants denoted by − (no glyphosate resistance) [4]: 42; glyphosate resistance / survival of the rice transformed by the EPSPS, in words (20× glyphosate dosage): none of the rice seedlings containing the wheat EPSPS mutant T2 achieved the level of medium glyphosate resistance |
| B2 | 35.6 | 30 | 18 | 8 | 7 | obviously superior to that of the rice seedlings transformed by T0 | 18.2 | 40 | 0 | 4 | 34 | 0.0 | 12 | 0 | 0 | 66 | 0.0 | 0 | 0 | 0 | glyphosate resistance / survival of the rice transformed by the EPSPS, in words (2× glyphosate dosage): some of the transgenic rice seedlings transformed by T4, T1 and T5 still survived; glyphosate resistance / survival of the rice transformed by the EPSPS, in words (5× glyphosate dosage): some of the transgenic rice seedlings transformed by T4, T1 and T5 still survived; number of plants denoted by − (no glyphosate resistance) [4]: 78 |
| B3 | 71.0 | 27 | 33 | 77 | 18 | had relatively high resistance to glyphosate | 51.0 | 47 | 46 | 33 | 29 | 25.8 | 75 | 38 | 2 | 40 | 3.2 | 57 | 5 | 0 | number of plants denoted by − (no glyphosate resistance) [4]: 93 |
